Experimental data as given in paper PMC7054360, “pH-responsive high stability polymeric nanoparticles for targeted delivery of anticancer therapeutics” (Communications Biology, 2020).
Where no end group is shown, it is not given here. The star is where a group is joined. NBD = O=[N+]([O-])c1ccc(*)c2nonc12

Target: T1, bovine serum albumin (bovine, UniProt P02769 25-607)
T1 construct: bovine serum albumin; Free BSA in PBS, not the crosslinked BSA shell of the nanoparticles; also called BSA; source: bought: Sigma
Test: fluorescence polarisation; fluorescence anisotropy of NBD; constant 0.4 uM ATRAM-NBD, increasing BSA (0.25-15 uM); PBS; room temperature; excitation 460 nm, emission 535 nm
Conditions: both partners purified

T1 sequence (P02769 25-607): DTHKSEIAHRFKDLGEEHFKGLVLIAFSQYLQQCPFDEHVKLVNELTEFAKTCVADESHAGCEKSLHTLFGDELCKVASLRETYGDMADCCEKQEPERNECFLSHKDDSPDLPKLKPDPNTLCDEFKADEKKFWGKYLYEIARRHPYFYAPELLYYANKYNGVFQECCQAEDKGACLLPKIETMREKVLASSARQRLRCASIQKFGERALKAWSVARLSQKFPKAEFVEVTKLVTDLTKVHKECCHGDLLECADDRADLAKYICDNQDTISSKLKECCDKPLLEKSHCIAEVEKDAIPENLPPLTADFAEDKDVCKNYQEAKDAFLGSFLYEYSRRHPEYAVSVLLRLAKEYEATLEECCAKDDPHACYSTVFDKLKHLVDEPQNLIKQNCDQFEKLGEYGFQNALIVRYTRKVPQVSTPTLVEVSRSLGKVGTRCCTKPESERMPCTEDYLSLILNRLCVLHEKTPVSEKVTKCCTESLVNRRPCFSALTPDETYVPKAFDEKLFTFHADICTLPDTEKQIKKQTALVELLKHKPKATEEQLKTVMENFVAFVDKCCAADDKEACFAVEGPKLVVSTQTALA

Kd: 295 nM
B1: NBD-labeled ATRAM (acidity-triggered rational membrane peptide), C-terminal cysteine variant (peptide)
peptide: GLAGLAGLLGLEGLLGLPLGLLEGLWLGLELEC(NBD)N
notes: designed pH-responsive ATRAM peptide, variant with a cysteine (underlined in print) next to the C-terminal residue; also called ATRAM-NBD; source: C-terminal cysteine ATRAM variant labelled with NBD; purified by PD-10 gel filtration and reverse-phase HPLC (parent ATRAM peptide: synthesized by Selleck Chemicals, Fmoc)
